The values below come from patent publication US20180186877A1, “METHOD FOR SUPPRESSING BLOOD COAGULATION REACTION FOR WHICH LOX-1 IS RESPONSIBLE” (NATIONAL CEREBRAL AND CARDIOVASCULAR CENTER, priority 2013, published 2018).

In the assay the target is LOX-1 (immobilised on the ELISA plate in Examples 3 to 6; recombinant LOX-1 protein immobilised in the test tube in Example 8) (UniProt P78380). The experiment in a line: ELISA, LOX-1 immobilised at 5 ug/mL, recombinant A2 domain 0-10 ug/mL, anti-V5 detection. (In general: In an ELISA, binding on a coated surface is turned into a signal by an enzyme label.)

Sequence of Recombinant A2 domain of the H chain of FV (NM000130.4, aa 317-656, V5-6xHis; Igk secretion signal) (P12259 345-684 limits assumed, form in doubt): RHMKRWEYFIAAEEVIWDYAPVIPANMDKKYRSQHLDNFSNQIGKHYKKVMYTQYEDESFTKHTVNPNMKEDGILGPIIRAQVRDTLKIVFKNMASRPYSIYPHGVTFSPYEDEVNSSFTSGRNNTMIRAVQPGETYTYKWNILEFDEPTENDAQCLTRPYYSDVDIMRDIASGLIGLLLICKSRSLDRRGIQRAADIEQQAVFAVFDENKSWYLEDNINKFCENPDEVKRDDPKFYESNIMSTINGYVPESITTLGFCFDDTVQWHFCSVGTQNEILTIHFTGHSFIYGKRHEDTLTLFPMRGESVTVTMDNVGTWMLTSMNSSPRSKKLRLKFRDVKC

For “Recombinant A2 domain of the H chain of FV (NM000130.4, aa 317-656, V5-6xHis; Igk secretion signal) (from UniProt P12259 345-684)”, the EC50 (read off the curve) came to 1 µg/mL.

The EC50 (read off the curve) is the concentration needed to bring the measured effect to its halfway point.
